Assay results from patent US20250295794A1 (Memorial Sloan Kettering, published 2025).

Tests used:
[1] = biological target: the molecule itself; test: fluorescence correlation spectroscopy; half-life of multimer dissociation, one-phase decay fit
Source text: (§1) FIG. 4 depicts a summary of fluorescence correlation spectroscopy (FCS) experiment regarding the SADA domains used here. […] Measurements were taken with a Zeiss LSM 880 confocal microscope. Normalized autocorrelations functions G(T) were then plotted to determine the diffusion times for each SADA-BiDE over time. All samples were compared against a monomeric anti-GD2 BiDE.

[2] = HPLC after single-step affinity purification; main peak at about 16 min is the self-assembled tetramer (self-association through the p73 SADA domain)
[3] = biological target: the molecule itself; test: fluorescence correlation spectroscopy; dissociation of the self-assembled multimer after dilution from 500 nM to 0.5 nM, Cy3-175Lu-Bn-DOTA label, one-phase decay fit
Source text: as §1

[4] = biological target: T1, IL-15 polypeptide (Homo sapiens (Human), UniProt P40933 49-162); test: production of the SADA-Cytokine complex; no direct binding assay described
T1 construct: also called sIL15; soluble IL15

[5] = biological target: the molecule itself; test: HPLC, traces normalized to peak intensity; main peak is the self-assembled multimer
[6] = HPLC after single-step affinity purification; main peak at about 16 min is the self-assembled tetramer (self-association through the p53 SADA domain)
[7] = HPLC after single-step affinity purification; main peak at about 16 min is the self-assembled tetramer (self-association through the p63 SADA domain)

T1 sequence (P40933 49-162 limits assumed): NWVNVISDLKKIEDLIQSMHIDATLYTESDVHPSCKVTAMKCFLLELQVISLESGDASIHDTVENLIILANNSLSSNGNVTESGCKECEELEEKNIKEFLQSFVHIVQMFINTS

| Binder | binding result [4] | half-life [1] [h] | % tetramer (HPLC purity, main peak) [2] [%] | koff [3] [s⁻¹] | binding result [5] | % tetramer (HPLC purity, main peak) [6] [%] | % tetramer (HPLC purity, main peak) [7] [%] |
| --- | --- | --- | --- | --- | --- | --- | --- |
| P73-BiDE (hu3F8-scFv, huC825-scFv, huP73-tet, GS linker, IgG3 spacer) (bispecific antibody, Self-assembles into a homo-tetramer of about 200 kDa; also called p73 SADA-BiDE) EIVMTQTPATLSVSAGERVTITCKASQSVSNDVTWYQQKPGQAPRLLIYSASNRYSGVPARFSGSGYGTEFTFTISSVQSEDFAVYFCQQDYSSFGCGTKLEIKRGGGGSGGGGSGGGGSGGGGSGGGGSGGGGSQVQLVESGPGVVQPGRSLRISCAVSGFSVTNYGVHWVRQPPGKCLEWLGVIWAGGITNYNSAFMSRLTISKDNSKNTVYLQMNSLRAEDTAMYYCASRGGHYGYALDYWGQGTLVTVSSGGGGSGGGGSGGGGSGGGGSHVQLVESGGGLVQPGGSLRLSCAASGFSLTDYGVHWVRQAPGKGLEWLGVIWSGGGTAYNTALISRFTISRDNSKNTLYLQMNSLRAEDTAVYYCARRGSYPYNYFDAWGCGTLVTVSSGGGGSGGGGSGGGGSQAVVTQEPSLTVSPGGTVTLTCGSSTGAVTASNYANWVQQKPGQCPRGLIGGHNNRPPGVPARFSGSLLGGKAALTLLGAQPEDEAEYYCALWYSDHWVIGGGTKLTVLGTPLGDTTHTSGRHGDEDTYYLQVRGRENFEILMKLKESLELMELVPQPLVDSYRQQQQLLQRPGGSGGAPHHHHHH |  | 2.03 | 90.2 | 9.5e-05 |  |  |  |
| P73-Cytokine polypeptide (IL15Rα, huP73-tet, IgG3 spacer) (other, The full complex is described as 8 pairs of IL15Rα/IL15; also called SADA-Cytokine) ITCPPPMSVEHADIWVKSYSLYSRERYICNSGFKRKAGTSSLTECVLNKATNVAHWTTPSLKCIRTPLGDTTHTSGRHGDEDTYYLQVRGRENFEILMKLKESLELMELVPQPLVDSYRQQQQLLQRPGGSGGAPHHHHHH | binds |  |  |  | binds |  |  |
| P53-BiDE (hu3F8-scFv, huC825-scFv, huP53-tet, GS linker, IgG3 spacer) (bispecific antibody, Self-assembles into a homo-tetramer of about 200 kDa; Its targets GD2 (ganglioside) and Bn-DOTA (hapten) are not proteins; only the self-association is recorded; also called p53 SADA-BiDE) EIVMTQTPATLSVSAGERVTITCKASQSVSNDVTWYQQKPGQAPRLLIYSASNRYSGVPARFSGSGYGTEFTFTISSVQSEDFAVYFCQQDYSSFGCGTKLEIKRGGGGSGGGGSGGGGSGGGGSGGGGSGGGGSQVQLVESGPGVVQPGRSLRISCAVSGFSVTNYGVHWVRQPPGKCLEWLGVIWAGGITNYNSAFMSRLTISKDNSKNTVYLQMNSLRAEDTAMYYCASRGGHYGYALDYWGQGTLVTVSSGGGGSGGGGSGGGGSGGGGSHVQLVESGGGLVQPGGSLRLSCAASGFSLTDYGVHWVRQAPGKGLEWLGVIWSGGGTAYNTALISRFTISRDNSKNTLYLQMNSLRAEDTAVYYCARRGSYPYNYFDAWGCGTLVTVSSGGGGSGGGGSGGGGSQAVVTQEPSLTVSPGGTVTLTCGSSTGAVTASNYANWVQQKPGQCPRGLIGGHNNRPPGVPARFSGSLLGGKAALTLLGAQPEDEAEYYCALWYSDHWVIGGGTKLTVLGTPLGDTTHTSGKPLDGEYFTLQIRGRERFEMFRELNEALELKDAQAGKEPGGSGGAPHHHHHH |  | 1.73 |  | 0.000112 |  | 94.4 |  |
| P63-BiDE (hu3F8-scFv, huC825-scFv, huP63-tet, GS linker, IgG3 spacer) (bispecific antibody, Self-assembles into a homo-tetramer of about 200 kDa; also called p63 SADA-BiDE) EIVMTQTPATLSVSAGERVTITCKASQSVSNDVTWYQQKPGQAPRLLIYSASNRYSGVPARFSGSGYGTEFTFTISSVQSEDFAVYFCQQDYSSFGCGTKLEIKRGGGGSGGGGSGGGGSGGGGSGGGGSGGGGSQVQLVESGPGVVQPGRSLRISCAVSGFSVTNYGVHWVRQPPGKCLEWLGVIWAGGITNYNSAFMSRLTISKDNSKNTVYLQMNSLRAEDTAMYYCASRGGHYGYALDYWGQGTLVTVSSGGGGSGGGGSGGGGSGGGGSHVQLVESGGGLVQPGGSLRLSCAASGFSLTDYGVHWVRQAPGKGLEWLGVIWSGGGTAYNTALISRFTISRDNSKNTLYLQMNSLRAEDTAVYYCARRGSYPYNYFDAWGCGTLVTVSSGGGGSGGGGSGGGGSQAVVTQEPSLTVSPGGTVTLTCGSSTGAVTASNYANWVQQKPGQCPRGLIGGHNNRPPGVPARFSGSLLGGKAALTLLGAQPEDEAEYYCALWYSDHWVIGGGTKLTVLGTPLGDTTHTSGRSPDDELLYLPVRGRETYEMLLKIKESLELMQYLPQHTIETYRQQQQQQHQHLLQKQGGSGGAPHHHHHH |  | 3.08 |  | 6.3e-05 |  |  | 89.2 |

The next lines start with results.

| binding result [4] | Binder | half-life [1] [h] | % tetramer (HPLC purity, main peak) [2] [%] | koff [3] [s⁻¹] | binding result [5] | % tetramer (HPLC purity, main peak) [6] [%] | % tetramer (HPLC purity, main peak) [7] [%] |
| --- | --- | --- | --- | --- | --- | --- | --- |
| binds | P63-Cytokine polypeptide (IL15Rα, huP63-tet, IgG3 spacer) (other, The full complex is described as 8 pairs of IL15Rα/IL15; also called SADA-Cytokine) ITCPPPMSVEHADIWVKSYSLYSRERYICNSGFKRKAGTSSLTECVLNKATNVAHWTTPSLKCIRTPLGDTTHTSGRSPDDELLYLPVRGRETYEMLLKIKESLELMQYLPQHTIETYRQQQQQQHQHLLQKQGGSGGAPHHHHHH |  |  |  | binds |  |  |
| binds | P53-Cytokine polypeptide (IL15Rα, huP53-tet, IgG3 spacer) (other, The full complex is described as 8 pairs of IL15Rα/IL15 (about 200 kDa); also called SADA-Cytokine) ITCPPPMSVEHADIWVKSYSLYSRERYICNSGFKRKAGTSSLTECVLNKATNVAHWTTPSLKCIRTPLGDTTHTSGKPLDGEYFTLQIRGRERFEMFRELNEALELKDAQAGKEPGGSGGAPHHHHHH |  |  |  | binds |  |  |
